The subject of series [1] is heparan sulfate proteoglycans (HSPG). Put plainly: CS/proteoglycan co-immunoprecipitation. To be noted: for co-immunoprecipitation of 35SO4-labeled sulfated molecules: lysates of rat liver, HepG2 cells, kidney, others 64 μg/ml; for total sulfate-labeled proteoglycans precipitated: trypsin-released proteoglycan, equivalent concentrations of Region II+. Format: binding, human. Here is the method: All extracts and supernatants were first precleared with normal rabbit serum and Staph A cells. Then 32 μg/ml of CSFZ(Cys) or 64 μg/ml of CS27IVC, Falc-2 or Falc-1 were added for 30 minutes, followed by 10.8 μg/ml mAb 2A10 for 30 minutes, and 1% Staph A cells (final concentrations). The suspensions were shaken for 1 to 5 hours at 4° C. The Staph A cells were washed 3 times with the lysis buffer A, 2 times with lysis buffer B (10 mM Tris-HCl, pH 7.2, containing 100 mM NaCl and 0.5% NP40), 1 time with 50 mM Tris-HCl, ph 7.2, and were processed in this buffer for electrophoresis under reducing and non-reducing conditions.
Extracts of cells metabolically labeled with ^35SO4 were incubated for 30 minutes at 4° C. with 32 μg/ml of recombinant CSFZ(Cys) or 64 μg/ml Falc-1, and were immunoprecipitated with mAb 2A10 and Staph A cells. […] Immunoprecipitation with Falc-1 was negative. The SDS-PAGE patterns of the total lysate of HepG2 cells, and of the molecules co-immunoprecipitated with CSFZ(Cys) resembled the corresponding liver SDS-PAGE patterns. In kidney lysates, CSFZ(Cys) selectively immunoprecipitated a band of slightly lower molecular weight than the total kidney sulfated molecules.
Sub-confluent HepG2 cells were incubated with various concentrations of trypsin for 5 minutes at 4° C. […] Independently of the trypsin concentration, about 80% of the released HSPG was co-immunoprecipitated by 32 μg/ml CSFZ(Cys) and 10.8 μg/ml mAb 2A10. Under the same conditions, Falc-1 was negative.
^35SO4-labeled trypsin-released proteoglycan (total supernatant) was precipitated by CSFZ(Cys) (32 μg/ml), Falc-2 (64 μg/ml), CS27IVC (64 μg/ml) and Falc-1 (64 μg/ml). The labeled molecules were incubated with CSFZ(Cys), CS27IVC, and Falc-2 at equivalent concentrations of Region II+, and co-immunoprecipitated with the mAb 2A10. CSFZ(Cys), lacking most of the repeat region, precipitated up to 86% of the total sulfate-labeled proteoglycans (see FIG. 14), while CS27IVC and Falc-2 precipitated only 18% and 6% of the counts, respectively. Falc-1, which lacks Region II+, was negative.
Subconfluent sulfate-labeled HepG2 cells were incubated with 20 μg/ml trypsin for 5 minutes at 4° C., and the supernatants were loaded onto an anion exchange chromatography Pharmacia mono-Q column. These were eluted with a 0 to 2 M NaCl gradient in the presence of 7 M urea. […] Protein was not detectable in the labeled peaks. One ml fractions were collected and counted.

A short description of series [2]: Clearance studies of 125I-labeled proteins. It counts as in vivo, mouse. To be noted: monomeric fraction of CS27IVC, or Falc-1; i.v., between 2 and 15 minutes. Here is the method: Clearance Studies: Mice were anesthetized with ether, and injected with 10^5 cpm of ^125I-labeled CS27IVC or Falc-1 via the periorbital sinus. At two, five and fifteen minutes after injection, the mice were exsanguinated, the organs removed, rinsed in TBS, blotted dry on filter paper, and counted for radioactivity. To estimate the amounts of blood contaminating the various organs, we repeated the same procedure in mice injected with 100 μl (1.5×10^5 cpm) of ^51Cr-labeled RBC. The mean volumes of blood in the liver, spleen and kidney of the exsanguinated animals were 75, 24, and 35 μl respectively. In all other organs, the amount of blood was negligible, i.e., less than 15 μl. The percent of injected dose of CS which was retained in the various organs was calculated as described as follows: [formula]
Radiolabeled Falc-1 (FIG. 30B), and the aggregated (FIG. 30C) and monomeric (FIG. 30A) fractions of radiolabeled CS27IVC proteins were injected intravenously into the retroorbital sinuses of mice. The animals were sacrificed 2, 5 and 15 minutes later, and the amounts of CS in the blood and in various organs were measured. Additionally, the radioactivity associated with the various organs was calculated. […]

Series [3] can be described thus: Localization in organs after intravenous injection (light and electron microscopy). Format: in vivo, mouse. Particulars: 100 μg i.v., 5 minutes. Here is the method: In other experiments, light and electron microscopy were used to localize CS in the various organs. The mice were injected i.v. with 100 μg of unlabeled CS27IVC or Falc-1 via the retroorbital plexus. The mice were exsanguinated five minutes after injection, the organs removed, rinsed in TBS, blotted dry, and then snap frozen in liquid nitrogen for light microscopy. For electron microscopy, the organs were cut into small pieces and fixed in a mixture of 0.1% glutaraldehyde and 4% paraformaldehyde.
Light Microscopy: The frozen tissue was embedded in Tissue Tek O.C.T. (Miles Inc., Naperville, Ill.) and cut into 5 μm sections. Sections were dried for 30 minutes, fixed for 10 minutes in 4% paraformaldehyde, and either used immediately or stored at 4° C. in PBS containing 1% BSA, 0.5% Tween-20. After blocking with the same buffer, the sections were incubated with mAb 2A10 conjugated to FITC, and examined in a fluorescence microscope.
Electron Microscopy: The fixed liver specimens were dehydrated in ethanol and embedded in Lowicryl K4M at −20° C. (Frevert et al., Infect. and Immun. 80:2349 (1992)). After UV polymerization, sections were cut with a RMC MT-7 ultramicrotome and stained by sequential incubation with 15 μg/ml mAb 2A10 and protein A gold 10 nm (PAG10) (1:30, Amersham, Arlington, Ill.). Cerami et al., Cell 70:1021 (1992). Control sections were strained only with the gold conjugate. […]

Data on two molecules can be found in patent US20030119733A1, “Compositions and methods for inhibiting hepatocyte invasion by malarial sporozoites” (New York University, priority 1992, published 2003).

B1: Falciparum-1: Same as Falciparum-2 minus most of Region II+ (P. falciparum residues 43-348) (protein)
chain: AGTNLYNELEMNYYGKQENWYSLKKNSRSLGENDDGNNNNGDNGREGKDEDKRDGNNEDNEKLRKPKHKKLKQPGDGNPDPNANPNVDPNANPNVDPNANPNVDPNANPNANPNANPNANPNANPNANPNANPNANPNANPNANPNANPNANPNANPNANPNANPNVDPNANPNANPNANPNANPNANPNANPNANPNANPNANPNANPNANPNANPNANPNANPNANPNANPNANPNANPNANPNKNNQGNGQGHNMPNDPNRNVDENANANNAVKNNNNEEPSDKHIEQYLKKIKNSISTEWSP
As to B1, the “co-immunoprecipitation of 35SO4-labeled sulfated molecules” value in series [1] (CSFZ(Cys) 32 μg/ml, listed as Falc-1) is “Negative results”. In series [1] (trypsin-released from HepG2 cells, CSFZ(Cys) 32 μg/ml, mAb 2A10 10.8 μg/ml), the “released HSPG co-immunoprecipitated” value is reported as “negative”. Further, the “total sulfate-labeled proteoglycans precipitated” value in series [1] is listed as “negative”. The “injected counts recovered in the blood and in various organs” value in series [2] is listed as “about 40%”. Moreover, in series [3], the “staining of kidney or other organs with FITC-labeled mAb 2A10” value is recorded as “No staining” and the “staining of liver with FITC-labeled mAb 2A10” value was “No staining”.

B2: Falciparum-2: fragment of P. falciparum CS protein with repeats and Region II+ (residues 43-391) (protein)
chain: AGTNLYNELEMNYYGKQENWYSLKKNSRSLGENDDGNNNNGDNGREGKDEDKRDGNNEDNEKLRKPKHKKLKQPGDGNPDPNANPNVDPNANPNVDPNANPNVDPNANPNANPNANPNANPNANPNANPNANPNANPNANPNANPNANPNANPNANPNANPNANPNVDPNANPNANPNANPNANPNANPNANPNANPNANPNANPNANPNANPNANPNANPNANPNANPNANPNANPNANPNANPNKNNQGNGQGHNMPNDPNRNVDENANANNAVKNNNNEEPSDKHIEQYLKKIKNSISTEWSPCSVTCGNGIQVRIKPGSANKPKDELDYENDIEKKICKMEKCSS
B2: the “co-immunoprecipitation of 35SO4-labeled sulfated molecules” value in series [1] (CSFZ(Cys) 32 μg/ml) was “less efficient”. In series [1], the “total sulfate-labeled proteoglycans precipitated” value is on record as 6%.
